The values below come from patent publication US20190314260A1, “ENGINEERED TREATMENTS FOR HAIR REPAIR AND LONG-LASTING COLOR RETENTION” (Massachusetts Institute of Technology, priority 2018, published 2019).

No end group written: not given here.

Data set [1] in a line: keratin binding domain absorption test (FITC-conjugated peptides, fluorescence microscopy), healthy hair. As to conditions: FITC conjugate, 37° C. for 1 hr, hair washed 10 times. The method, then: (§1) The peptide-FITC conjugate is not seen on healthy hair because the hydrophobic surface of healthy hair cuticles prevents binding of the peptide. However, peptide-FITC conjugates are shown to be absorbed in damaged hair because the peptide bonds to exposed keratin proteins on damaged hair shafts. […] This is due to binding of the C-terminal cysteine present on Peptide 2 to the exposed keratin protein on the damaged hair.
(§2) Samples of healthy and damaged hair were incubated with the FITC-conjugated peptides at 37° C. for 1 hr, followed by washing the hair 10 times (FIG. 5). The results are provided in the images obtained by fluorescent microscopy shown in the right part of FIG. 5.

In data set [2] the test system is exposed keratin proteins on damaged hair. The data set is described as follows: keratin binding domain absorption test (FITC-conjugated peptides, fluorescence microscopy), damaged hair. As to conditions: FITC conjugate, 37° C. for 1 hr, hair washed 10 times.
Excerpt: as §1
To provide damaged hair for treatment using the exemplary engineered keratin-binding construct, hair was incubated with 10% H2O2(v/v) in 0.1M Na2CO3/NaHCO3 (pH 9.0) buffer at 50° C. for 1 hr, and then the hairs were washed in deionized (DI) water.
as §2

Data set [3] has as its system NIH3T3 fibroblast cell. Briefly: MTT assay, NIH3T3 fibroblast cell viability. The class given is cell-based. As to conditions: in the presence of the protein.
For data set [4], the system named is IL-6 in fibroblast cells. The data set is described as follows: IL-6 ELISA (immune response). The format is cell-based. As to conditions: LPS positive control. The method, then:
(§3) Keratin-binding protein (B22) was tested for immune response by performing an IL-6 ELISA and IFN-γ ELISA. The effects of KBP and KBP-lipid conjugate on the immune response was assessed by measuring levels of IL-6 and IFN-γ in fibroblast cells. No protein was added to the cells as a negative control. Lipopolysaccharides (LPS) were used as a positive control.
In general terms: In an ELISA, binding on a coated surface is turned into a signal by an enzyme label.

The subject of data set [5] is IFN-γ in fibroblast cells. Briefly: IFN-γ ELISA (immune response). The class given is cell-based. As to conditions: LPS positive control. The method, then:
as §3

The nature of data set [6]: solubility test in oil-based solvents. The format is physicochemical. The following applies: 2.5 mg protein/10 mL solvent. The method, then:
Solubility tests were performed by adding keratin-binding protein to 7 different solvents at concentrations of 2.5 mg protein/10 mL solvent. […] KBP was soluble in polysorbate 40 (Tween® 40) and Solubilisant CLR, with only a few visible particles present in solution.

Data set [7] concerns damaged hair. Briefly: affinity of keratin binding protein tagged with a fluorescent dye for damaged and undamaged hair (fluorescence microscopy). The procedure: Keratin binding protein tagged with a fluorescent dye was incubated with damaged and undamaged (virgin) hair, and observed by fluorescence microscopy. The results are depicted in FIG. 8, with microscopy images shown on the left and intensity of corrected fluorescence shown on the right. Corrected fluorescence=Integrated Density−(selected area X Mean fluorescence of background).
The damaged hair incubated with keratin binding protein tagged with a fluorescent dye for varying amounts of time was then subjected to washing with shampoo.

On to “peptide1-FITC: Peptide1 (AKTKKVELFPK) conjugated to fluorescein isothiocyanate (FITC) (also: FITC conjugate, site not given here)”, for which the “binding to healthy hair” value in data set [1] was “Neither peptide1-FITC nor peptide1-FITC is shown as binding”.

For “Peptide 2: same keratin binding domain as peptide 1 plus a C-terminal cysteine, AKTKKVELFPKC; SEQ ID NO: 5”, in data set [2], the “affinity to damaged hair compared to Peptide 1” value was “higher affinity” and the “binding affinity to the damaged hair” value is recorded as “strong binding affinity”.

B1: KBP: engineered keratin-binding protein without tyrosine residues; keratin-binding domain SEQ ID NO: 1 repeated three times, expressed in E. coli (protein)
chain: MAKTHHHHHHQGQVQHLQAAFSQYKKVELFPKGGQGQVQHLQAAFSQYKKVELFPKGGQGQVQHLQAAFSQYKKVELFPKGGYYYYC
Consider B1, for which, in data set [3], the “NIH3T3 fibroblast cell viability” value is listed as “increased”. The “production of IL-6” value in data set [4] was “No production”. In addition, the “production of IFN-γ” value in data set [5] was “No production”. Also, in data set [6], the “solubility in butylene glycol” value is reported as “not soluble”, the solubility in glycerin result is “not soluble”, the “solubility in hexylene glycol” value is “not soluble” and the “solubility in polysorbate 20 (Tween® 20)” value is “not soluble”. In data set [6] (only a few visible particles), the “solubility in Solubilisant CLR” value is listed as “soluble” and the “solubility in polysorbate 40 (Tween® 40)” value is on record as “soluble”. Also, in data set [7], the “binding to damaged hair versus healthy hair” value is on record as “binds more readily to damaged hair”.

B2: KBPY: keratin-binding protein with tyrosine residues, SEQ ID NO: 2: MAKT-6His-three keratin-binding domain repeats-YYYYC (protein)
chain: B1 chain
Take B2: the “NIH3T3 fibroblast cell viability” value in data set [3] is reported as “increased”.
